Patent publication US10294504B2, “Mutant endoglycoceramidases with enhanced synthetic activity” (La Jolla Pharmaceutical Company, priority 2004, dated 2019)

Experiment: Hydrolysis kinetics of wild-type Rhodococcus EGC using 2,4-dinitrophenyl lactoside as the substrate
Type: biochemical
Experimental: FIG. 18 illustrates a Michaelis-Menten curve for wild-type Rhodococcus EGC using 2,4-dinitrophenyl lactoside as the substrate.
FIGS. 19A-19C illustrate variation of kcat, Km, and kcat/Km with increasing detergent concentration for wild-type Rhodococcus EGC.
FIG. 20 illustrates pH rate profile for wild-type Rhodococcus EGC.
Using 2,4-dinitrophenyl lactoside as a substrate, the Rhodococcus M-777 EGC enzyme has a Km of approximately 2 mM, and a kcat of 90 min-1 (FIG. 18). The dependence of the activity on detergent concentration was also investigated. […] The dependence of kcat/Km on detergent concentration leveled off at concentrations greater than 0.5%; increasing the detergent concentration caused a steady increase in both kcat and Km up to a concentration of 1% (FIGS. 19A-C). The pH dependence of the hydrolysis activity was also investigated. As expected, the maximal kcat/Km is observed around pH 5 (FIG. 20).

[1] = substrate 2,4-dinitrophenyl lactoside

B1: Rhodococcus M-777 EGC: wild-type endoglycoceramidase from Rhodococcus sp. M-777, GenBank AAB67050, SEQ ID NO:3 (protein, listed as Rhodococcus sp.)
chain: MRRTRLVSLIVTGSLVFGGGVAAAQSSLAASGSGSGSGTALTPSYLKDDDGRSLILRGFNTASSAKSAPDGMPQFTEADLAREYADMGTNFVRFLISWRSVEPAPGVYDQQYLDRVEDRVGWYAERGYKVMLDMHQDVYSGAITPEGNSGNGAGAIGNGAPAWATYMDGLPVEPQPRWELYYIQPGVMRAFDNFWNTTGKHPELVEHYAKAWRAVADRFADNDAVVAYDLMNEPFGGSLQGPAFEAGPLAAMYQRTTDAIRQVDQDTWVCVAPQAIGVNQGLPSGLTKIDDPRAGQQRIAYCPHLYPLPLDIGDGHEGLARTLTDVTIDAWRANTAHTARVLGDVPIILGEFGLDTTLPGARDYIERVYGTAREMGAGVSYWSSDPGPWGPYLPDGTQTLLVDTLNKPYPRAVAGTPTEWSSTSDRLQLTIEPDAAITAPTEIYLPEAGFPGDVHVEGADVVGWDRQSRLLTVRTPADSGNVTVTVTPAA
Q: For B1, which rate of hydrolysis (in the absence of detergent) is on record?
A: very low

Q: And the “pH of maximal kcat/Km” value (pH dependence of the hydrolysis activity)?
A: ~5 pH

Q: And the Km [1]?
A: ~2000 µM

Q: And the kcat [1]?
A: 1.5 s⁻¹
